Our source for the Kd values is publication PMC2233751 (The Journal of General Physiology, 2001).

The target in the assay is actin filaments (UniProt P68135 1-377). Kind of assay: co-sedimentation.

B1: myosin V 1IQ monomer (domain or fragment)
chain: MAASELYTKYARVWIPDPEEVWKSAELLKDYKPGDKVLQLRLEEGKDLEYCLDPKTKELPPLRNPDILVGENDLTALSYLHEPAVLHNLKVRFIDSKLIYTYCGIVLVAINPYEQLPIYGEDIINAYSGQNMGDMDPHIFAVAEEAYKQMARDERNQSIIVSGESGAGKTVSAKYAMRYFATVSGSASEANVEEKVLASNPIMESIGNAKTTRNDNSSRFGKYIEIGFDKRYRIIGANMRTYLLEKSRVVFQAEEERNYHIFYQLCASAALPEFKTLRLGNANYFHYTKQGGSPVIDGIDDAKEMVNTRQACTLLGISDSYQMGIFRILAGILHLGNVEFASRDSDSCAIPPKHDPLTIFCDLMGVDYEEMAHWLCHRKLATATETYIKPISKLHAINARDALAKHIYANLFNWIVDHVNKALHSTVKQHSFIGVLDIYGFETFEINSFEQFCINYANEKLQQQFNMHVFKLEQEEYMKEQIPWTLIDFYDNQPCINLIEAKMGVLDLLDEECKMPKGSDDTWAQKLYNTHLNKCALFEKPRLSNKAFIIKHFADKVEYQCEGFLEKNKDTVYEEQIKVLKSSKKFKLLPELFQDEEKAISPTSATPSGRVPLSRTPVKPAKARPGQTSKEHKKTVGHQFRNSLHLLMETLNATTPHYVRCIKPNDFKFPFTFDEKRAVQQLRACGVLETIRISAAGFPSRWTYQEFFSRYRVLMKQKDVLSDRKQTCKNVLEKLILDKDKYQFGKTKIFFRAGQVAYLEKIRADKLRAACIRIQKTIRGWLMRKKYMRMRR
In turn, B1 displayed a dissociation constant (Kd) of 10 µM.

For orientation: Kd means the concentration at which binding is half-saturated. A lower Kd goes with tighter binding.
